The results in this text go back to PMC11215833.

The assay has as its target PybHLH3: Nluc (pear 'Red Zaosu' (P. pyrifolia × P. communis)).

With “PyMYB107 (co-expressed as competitor) (natural protein)”, the dual-luciferase assay, LUC/REN ratio of the PyUFGT promoter activated by PyMYB10 with PybHLH3; ratio of PyMYB107:PyMYB10 from 0:1 (0.48) to 1:1 (0.26) (LUC/REN ratio) is 0.26.
